# Target: Endothelin B receptor (ETRB) (human) (UniProt P24530)
# Experiment: cell-based or functional assay
# UniProt P24530, sequence (P24530 27-442 limits assumed): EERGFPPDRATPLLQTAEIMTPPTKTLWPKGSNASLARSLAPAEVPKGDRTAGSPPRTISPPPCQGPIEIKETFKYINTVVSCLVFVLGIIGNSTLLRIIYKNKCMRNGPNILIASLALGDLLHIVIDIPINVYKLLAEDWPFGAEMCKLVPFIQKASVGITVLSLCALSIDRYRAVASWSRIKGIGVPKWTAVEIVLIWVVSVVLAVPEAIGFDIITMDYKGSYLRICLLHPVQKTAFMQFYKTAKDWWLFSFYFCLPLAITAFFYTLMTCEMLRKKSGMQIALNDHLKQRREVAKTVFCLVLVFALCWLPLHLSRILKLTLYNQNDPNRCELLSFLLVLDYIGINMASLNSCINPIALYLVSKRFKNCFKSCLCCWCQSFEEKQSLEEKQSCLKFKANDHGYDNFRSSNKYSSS
substance,measurement,value
"ETRB antagonist peptide, BQ-788",ICAM-1 mRNA in HUVEC (qRT-PCR),> 7 fold
same,adherence of activated human T cells to HUVEC,40%

# Source: patent US20090214518A1
